One data set concerns HUVECs. The data set is described as follows: MTT cytotoxicity assay. It is filed as cell-based, human. The following applies: up to 10 × 10^−6 M, 24, 48, 72 h, n = 3. The procedure: To evaluate the cytotoxicity of DR6‐targeting peptides, MTT assay was conducted. Briefly, 4 × 10^3 HUVECs were added in 96‐well plates and grown overnight before incubating with AHP‐DRI‐12 and PEG‐tAHP‐DRI (0.1 × 10^–6, 1.0 × 10^–6, 10 ×10^–6 M AHP‐DRI‐12). After incubating for 24, 48, and 72 h, 100 µL of 0.5 mg mL^–1 MTT was added to each well, and the plates were incubated at 37 °C for 4 h. After the removal of the supernatant, the precipitate was dissolved in 150 µL dimethyl sulfoxide, and the absorbance was measured at 490 nm using a microplate reader.

The nature of data set [1]: Pharmacokinetic study after intravenous injection. It is filed as in vivo. The following applies: SD rats, FITC-labeled. The procedure:
To investigate the pharmacokinetic profile of AHP‐DRI‐12 and PEG‐tAHP‐DRI, SD rats were intravenously injected with FITC‐labeled AHP‐DRI‐12 and PEG‐tAHP‐DRI and blood samples were collected at 0.5, 1, 2, 4, 6, 24, 30, 48, 54, and 72 h. The DR6‐targeting peptide level of blood samples was measured by a microplate reader.

The subject of data set [2] is 4T1 orthotopic tumor model. The data set is described as follows: Spontaneous lung metastasis of 4T1 orthotopic breast tumor model. Type of data set: in vivo, Balb/c female mice. The conditions noted are these: intravenous, 0.2 µg g^–1 AHP-DRI-12, every 2 days, 14 times; sacrificed day 30. The procedure:
The spontaneous lung metastasis of orthotopic breast tumor model was established via injection of 4T1 cells into the fourth inguinal mammary gland of Balb/c female mice. The mice were intravenously injected with saline, AHP‐DRI‐12, and PEG‐tAHP‐DRI (0.2 µg g^–1 AHP‐DRI‐12), respectively, every 2 days for total of 14 times. Mice were sacrificed on day 30 and their lungs were collected for observation and histological analysis.

The test system of data set [3] is RIPK1, RIPK3, MLKL and their phosphorylated states in HUVECs. The data set is described as follows: Western blot of necroptosis pathway proteins. It is filed as cell-based, human. The conditions noted are these: 24 h, 0.1, 1.0, 10 × 10^–6 M AHP-DRI-12. The procedure:
Western blot assay was conducted to examine the expression level of RIPK1, RIPK3, MLKL, and their phosphorylated states that were downstream protein of DR6. Briefly, 5 × 10^5 HUVECs were added in six‐well plates and grown overnight. Next day, HUVECs were treated with TSZ, AHP‐DRI‐12, and PEG‐tAHP‐DRI (0.1 × 10^–6, 1.0 × 10^–6, 10 × 10^–6 M AHP‐DRI‐12), respectively. After incubating for 24 h, HUVECs were washed with PBS, harvested, and mixed with 150 µL cell lysate buffer/well (Beyotime, China). Protein samples were collected after incubation at 4 ℃ for 30 min. Protein samples were centrifuged at 4 °C and 12 000 rpm for 10 min, and the supernatant was collected as samples. Each sample was then separated by 12% SDS–PAGE, followed by transferring to polyvinylidene difluoride membranes. Finally, samples were incubated with antibodies. HRP‐labeled secondary antibodies were added and measured using an imaging system.
(In general: Immunoblotting shows a protein as a band on a membrane.)

The nature of data set [4]: In vivo safety analysis in healthy mice. The arrangement: species or system C57BL/6 mice. The following applies: intravenous. The procedure: For evaluating the toxicity of peptides in vivo, 6 week old healthy mice were intravenously injected with AHP‐DRI‐12 and PEG‐tAHP‐DRI (0.2 µg g^–1 AHP‐DRI‐12). After 2 and 15 days, mice were sacrificed and serum samples were collected for the biochemical analysis (ALT, AST, BRU, and URE). Tissue samples from various organs were collected for tissue sections. The tissue sections were analyzed by H&E staining and immunohistochemistry analysis.

Data set [5] is described as follows: DAPI staining of lung sections after injection of FITC-labeled ligand. Type of data set: in vivo. The conditions noted are these: FITC-labeled ligand intravenously, lungs isolated 30 min later, confocal. The procedure: FITC‐labeled AHP‐DRI‐12 and PEG‐tAHP‐DRI were injected intravenously and 30 min later, lungs were isolated to prepare frozen sections. The frozen sections were stained with DAPI. The representative images were taken on a confocal microscope.

Data set [6] concerns B16F10, 4T1, and CT26 lung metastasis models. The data set is described as follows: In vivo anti-metastasis assay, lung metastasis models. The arrangement: species or system mice. The procedure:
2 × 10^5 GFP‐B16F10 cells, 2 × 10^5 4T1, or 2 × 10^5 CT26 in 100 µL PBS were injected to the lateral tail vein of mice, respectively. The mice were intravenously injected with saline, AHP‐DRI‐12, and PEG‐tAHP‐DRI (0.2 µg g^–1 AHP‐DRI‐12) shortly before and 24 h after injection of B16F10. Each formulation was administered every 2 days for a total of seven times. After 15 days, mice were sacrificed and perfused with PBS and 4% paraformaldehyde. The hearts, livers, spleens, lungs, and kidneys were collected for H&E staining and immunohistochemistry analysis. Lung metastases were analyzed by quantitation of GFP and metastases nodes.

The nature of data set [7]: Peptides stability in 25% rat serum. It is filed as in vitro ADME. The conditions noted are these: FITC-labeled peptides, 25% fresh rat serum, 37 °C, 0, 4, 8, 24, 48, 96 h; acetonitrile/0.1% TFA precipitation; microplate reader; n = 3. The procedure: FITC‐labeled peptides were added into 25% rat serum and incubated at 37 °C. After incubation at 0, 4, 8, 24, 48, 96 h, 100 µL solution was collected and acetonitrile (containing 0.1% TFA) was added to precipitate the protein in the serum. The serum samples were incubated at 4 °C for 20 min and then centrifuged at 12 000 rpm for 10 min. A total of 20 µL supernatant was measured by a microplate reader.

Data set [8] in a line: Biodistribution, ex vivo fluorescence imaging of organs. Type of data set: in vivo. The conditions noted are these: Cy7-labeled peptides, intravenous, mice. The procedure:
To quantify the biodistribution, mice were intravenously injected with Cy7‐labeled peptides. Mice were sacrificed at 6, 12, and 24 h after injection. All organs were harvested and subjected to ex vivo fluorescence imaging.

[9] abbreviates: healthy C57BL/6 mice, day 2 or 15.
[10] abbreviates: B16F10 tumor-bearing mice, 15 days.

Square brackets hold non-standard residues; d marks the D form. Side chains are listed from the residue outwards. Ends that are not written are not given here. maleimide = maleimide: 4-arm PEG5k maleimide reacting with the C-terminal Cys thiol

For the substance “PEG-tAHP-DRI: tetra-(D-retro-inverso isomer of AHP-12) substitued 4-arm PEG5k ([dP][dT][dT][dA][dD][dI][dT]C([maleimide-4‑arm PEG5k]); also: four peptides on one 4-arm PEG5k)”, in the data set with HUVECs, the HUVECs cell viability entry is “remained essentially unchanged”. Further, the “half-life (T1/2)” value in [1] (blood samples 0.5-72 h, microplate reader, n = 3) came to 11.1 h. Moreover, in data set [1] (compared with AHP-DRI-12), the “area under the curve (AUC0-72)” value is “significantly larger”. In data set [2], the “spontaneous metastasis to lungs” value was “efficiently restrain spontaneous metastasis to lungs”. In data set [3], the “native activation of necroptosis pathway (expression levels of p-RIPK1, p-RIPK3, p-MLKL)” value was “could not initialize necroptosis pathway”. For the same substance, in data set [4] (setting [9]), the “apoptotic cells in tissues, TUNEL staining” value is “no obvious increase in apoptotic cells”; the “damage to vessels, CD31 staining” value is on record as “could not cause damage to the vessels”; the “downstream signaling pathway of DR6 (p-RIPK1, p-IκB-α, caspase 8 staining)” value was “could not be impacted”. Also, the “damage to liver or kidney, blood biochemical indexes (ALT, AST, BRU, URE)” value in data set [4] (healthy mice, 0.2 µg g^–1 AHP-DRI-12, sacrificed day 2 or day 15) was “could not cause any damage to liver or kidney”. Moreover, the “binding potency and proteolytic stability in vivo by FITC fluorescence on lung frozen sections” value in [5] is listed as “best proteolytic stability”. In addition, in [6] (setting [10]), the “necroptosis in lungs, p-RIPK1 immunohistochemical analysis” value was “dramatic decrease of necroptosis in lungs”; the “pulmonary vessel integrity, CD31 staining” value is “remained relatively intact and orderly”. Also, the “expression level of GFP mRNA in lungs” value in data set [6] (GFP-B16F10 model, compared with vehicle-treated and AHP-DRI-12-treated mice, n = 6) is “less expression level of GFP mRNA in lungs”. The pulmonary metastasis nodules result in [6] (intravenous, 0.2 µg g^–1 AHP-DRI-12, every 2 days, seven times, lungs after 15 days) is listed as “least amount of pulmonary metastasis nodules”. For the same substance, the “metastatic loci in lungs, H&E staining” value in data set [6] (intravenous, 0.2 µg g^–1 AHP-DRI-12, 15 days, n = 6) was “less and smaller metastatic loci”. Also, the “degradation in 25% rat serum (proteolytic stability)” value in [7] was “obviously enhanced proteolytic resistance”. Besides, in data set [8], the “distribution in kidney and liver after 12 h” value is “much higher distribution in kidney and liver”; the “distribution intensity within 6 h, compared with AHP-DRI-12” value is recorded as “much lower distribution intensity”; the “organ accumulation within 6 h after injection” value is “accumulate mostly in kidney and slightly in liver”.

(Values after PMC8188212, “Multi‐Arm PEG/Peptidomimetic Conjugate Inhibitors of DR6/APP Interaction Block Hematogenous Tumor Cell Extravasation” (Advanced Science, 2021).)
